Source: the supplement of paper PMC12455559

Assay: purified protein yield per well (BCA); higher = higher soluble expression
In short: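 On an OT-2 robot, lysed cells were processed by binding protein to Ni-charged magnetic beads and releasing it with SUMO protease. Expression took place in E. coli C41(DE3), in 2 mL autoinduction cultures with 100 µg/mL kanamycin, for 2 h at 37 °C followed by 40 h at 18 °C. The Pierce Rapid Gold BCA kit was used to quantify purified protein yield in each well, with values under 25 ug (0.1 mg/mL) below the detection threshold.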

QTSPDCSAITISSSTNTGVNLVSTYLESDGIRNGTDYYGSTIYYPQNTTSILASIIIVPGYLNFESSMQNWGPFLASHGIVCMTIGTNNIFDLVNDRKEALQDALISLKAENTRVNSPLFNKLNTSRVALAGWSMGGGGAQLAAVEDSTIKAIIALCPWIDPMQISVNSLIHDVPVLFFSGQFDAVAPSSTHANIHYNYTPSTTDKLIYEISSGGHTVANVPSGGQGEVGRMALSWLKKYLIEDYCYCPLLLDTPLTASIYQTNVTCSTYGCTDSIALNYDPLATTDDGTCIYCVYGCTDSTSVNYAPLAICDDGTCIASVYGCTNATACNYYAGANINDGSCEWTSCNPTSCGASAITGLGVTNVIHDRVTLTFDNMNTYDTSGAQICRVDQLRIKYREVGTSSWSQKNMAAPTGYDPTTGICNSTQNTDKLVLGLSGSTTYEWEMRVWYCVTGATAWVVGPDFTTADNCPNIGSFTAYGSNPIRATFDWDDSNGSYEFVRIKMRVDSISNPQGTDWFQVGGFGVTYGTFTKDKNGLVAGETYRAQARTWCDPNGGAYNSLSWTALATW [TEP033]
purified protein yield per well: < 25 µg

QTTAPTSASLNASAGPLSVSTASVTAPRGFGGGTIYYPTTQARYGVIAISPGFTATQTSIAWLGRRIATHGFVVITLNTLTTLDQPDSRANQLMAALNHVINSSSSAVKARIDTSRLAVAGHSMGGGGALIAARDNPSLKASYPLTPWNINSAFSTVRVPTMIVGADGDTVAPVGTHARPFYAALPGATSKAYGELNGATHFSPNSTNTPIGRYGVAWMKRFLDGDTRYSTFLCGTEHTRYATALVFDRYNQNCPY [ESM122]
purified protein yield per well: < 25 µg

QTTAPTSASLNATAGPLSIASASVSSLAASGFGGGTIYYPTTSGRFGVVAISPGYTASQSTIAWLGRRMASHGFVVITIDTNTTLDYPESRATQLRAALDHVINRASTTVRNKVDPARRAVAGHSMGGGGSLIAAEADSTLKAAYPMTPWNISENFSRVRVPTMIIGADGDTIAPVISHARPFYGSIPNTTFKAYGELNNASHFAPNTTNTPIGRYGVAWMKRFVDGDTRYSTFLCGAEHNRYNTSLVFDQYRSNCPY [ESM079]
purified protein yield per well: < 25 µg

QTTAPTSASLNATAGPLSVSTASVSLPRGFGGGTIYYPTTQARYGVIAISPGFTATETSIAWLGRRIATHGFVVITLNTLTTLDQPASRANQLMAALSYVVNSSTSAVKARIDTTRLAVAGHSMGGGGALIAARDNPTLKASYPLTPWNSSTSFSTVRVPTMIIGADGDTIAPVAAHARPFYASLPGATTKAYGELNGGTHFSPNSTNTPIGRYGVAWMKRFVDGDTRYSTFLCGTEHTRYASALVFDRYNQNCPY [ESM124]
purified protein yield per well: < 25 µg

QTTAPTSSSLNATAGPYSVSTSSVTLPVGFGGGTVYYPTQTGKYGVIAISPGFTATQSSIAWLGRRLATHGFVVLTMNTLTTLDQPASRANQLMAALNYVLNSSPSAVRSRADGTRTAVAGHSMGGGGSLIAARDYPTLKASYPMTPWSPTSNFSTVRVPTMIIGADGDTIAPVATMSRVYYQNLPSTTSKAYGELNNATHFAPNMTNTPIGRYAVTWMKRFVDSDTRYSPFLCGAPHQAYATSLVFDRYSQNCPY [ESM083]
purified protein yield per well: < 25 µg

QVANPYAKGPNPTEASVTATTGPFAVTTSNISSLVSGFGGGRLYYPTATNQGTYGAIALSPGFTAGWSSIDWLGPRLASFGFVVIGIETNSRYDYPPSRGEQLLAALDWAVEDSPAASRIDPTRLAVGGHSMGGGGSLEAASDRPSLKAVLPLAPWNSDKTWNEVQVPTLIIGGESDTVAPVGSHSTPFYNSLSGEKAFLELNNASHFFPQSPNNLVAKLAISWAKRWVDNDTRYSQFLCPGPASGGLSEVQAYRQTCPF [TEP096]
purified protein yield per well: < 25 µg

QVGPAPSSSSLNATAGPFAVSTSNVILARGFGGGTIYYPSTSGLYGVVAISPGFTATESSVAWLGRRMATHGLVVITINTNTTLDQPASRATQLMAALNYVVNSASSTVRSRVDSTKLAVAGHSMGGGGALIAAEDNPTLKASLPLTPWNLSTSFTRVRVPTLIVGADGDSVASVTVHARPFYASLPASTFKAYAELNLASHFTPNSTNTPIGRYGVAWMKRFVDADTRYSPFLCGAEHNAYNTALVFDRYNQNCPY [ESM153]
purified protein yield per well: < 25 µg

QVGPDPTSASLNATAGPFSVSTASVISPRGFGGGTIYYPTTTGRYGVVAISPGFTATQSSIAWLGRRLATHGLVVITMNTNSTYDQPSSRATQLMAALNYVVNSSSSTVRARVDSSKLAVAGHSMGGGGALIAAENNPTLKASLPLTPWNSSTNFSDVRVPTLIVGADGDSVASVSRHARPFYASLPSNTFKAYAELNGASHFTPNSTSTPIGRYGVAWMKRFVDADTRYSPFLCGAAHQSYATSLVFDRYSQNCPY [ESM125]
purified protein yield per well: < 25 µg

QVGPTPTSSSLNVTAGPFAVSSSRVFSPRGFGGGTIYYPTTSGQYGVVAMSPGFTATESSIAWLGRRLATHGLVVITINTNSTYDQPASRATQLMAALNHVLNSASSTVRSRVDSSKLAVAGHSMGGGGALIAAQNNPTLKAALPLTPWNTSTRFDGVRVPTLIVGADGDSVARVASHARPFYASLPATTFKAYAELNGASHFAPNSTNTPIGRYGVAWMKRFVDADTRYSPFLCGAAHDAYATSAVFDRYNDNCPY [ESM085]
purified protein yield per well: < 25 µg

QVVVFEETFSTGLGKFTAAGSVVTSSGAARLDGCYGCTDGSITSTAISTVDFTGLRLSFDRVTSGLDSGEAGIAEFSTNGSTYTAVESIRTASGRVTFNLPTSAENQSGLRLRFRINASLSSETYTVDNIRLEGTSGSGGGTTNPFEKGPDPTKTMLEASTGPFTYTTTTVSSTTASGYRQGTIYHPTNVTGPFAAVAVVPGYLASQSSINWWGPRLASHGFVVITIDTNSTSDQPPSRATQLMAALNQLKTFSNTSSHPIYRKVDPNRLGVMGWSMGGGGTLIAARDNPTLKAAIPFAPWNSSTNFSTVSVPTLIIACESDSTAPVNSHASPFYNSLPSTTKKAYLEMNNGSHSCANSGNSNAGLIGKYGVSWMKRFMDNDTRFSPYLCGAPHQADLSLTAIDEYRENCPY [TEP066]
purified protein yield per well: < 25 µg

RDLPPSAPLAANPYERGPAPTVASIEATLGPFATAQTTVAAGSVSGFGGGTIYYPTSTAEGTFGAVAISPGFTARQTSVAWLGPRLASQGFVVITIDTRSVYDQPASRGTQLLAALDYLTNTSTVRTRIDRNRLAVMGHSMGGGGSLSAASTRPALQAAIPLTGWHTQKSWSSVRVPTLVIGAENDTVAPVSSHSEPFYTSLPATLDKAYLELNAASHSAPTSSNVTVAKYSISWLKRFVDDDTRYEQFLCPAPRGSAIEEYRDTCPHS [TEP042]
purified protein yield per well: < 25 µg

RPAESGASAAAVQATGTQRGPDPTIAMIEATRGPFATAQVSAPSGNGFGGGVVYYPTDTTQGTWGALAIVPGYSALCSTEEAWMGPWLSSFGFVVICTETNTRTDSDSQRAAELQAALTWLTTQSPVKSEVDPARLSVLGHSAGGAGAMEEAEQHPELRAAIGLAPGFPGQGLTLATDTVPTLIVGGQNDGTVTPSYLSNLYGTLPASTQSDFAQIAGADHVYYTHANNIEMKLIIPWLKVFVDSDTRYTQFLCPTLPDPSTISAYQPKCPYVPSGGSTPPPPTSVAIVGTGSGRCVTVPGGTQTGGTQVQLADCAGGTSQQWTNTATGQLQVFGTSCLDANARGTSPGTKVIIWSCNGQQNQQWTVHADGSITGVQSGLCLDATGAGTANGTPLELWTCNGGSNQKWTLQ [TEP132]
purified protein yield per well: < 25 µg

RPAPATTAASQSTQRGPDPTVAMIEATRGPFATAQVSVPAGHGFGGGMIYYPTDTSQGTWGALAIVPGYSALFANEEAWMGPWLSSFGFVVIGVETNTRTDSDSQRAAEVLAALDYLTTQSPVRNEVDPARLSVLGHSAGGAGVIEAAEQRPSLRALIGLAPGYPGQGLSMATDQVPALVVGGQADTTVTPSYLANLYGTLPASTQSDFAQIAGADHVYYTHPNNVEMKLIIPWLKLFVDSDSRYEQFLCPSLPDPSTISAYQPKCPYTPPGGSSSSSSSSSSSSASSSSPTTPTTTTSSTPSTSCTATYQTQNSWPGGFQGLVTVTAGPAAISSWTVKWNLSSGQSITQVWSGTLSTSGSAVSVGNASYNGSLAPGASATFGFLADGSPSTPTLSCTGS [ESM120]
purified protein yield per well: < 25 µg

RPAPEAAAPQAAQGNPYQRGPDPTVAAIEASRGPFATAQMSVAPGNGFNGGVVYYPTDTSLGTWGALAIVPGYTALCADEEAWMGPWLSSFGFAVICVETNTRTDDAGTRASELLAGLDWLTTQSPVRAEIDPNRLSVLGHSAGGAGAIIAAERRPALKAMIGLAPGFPGNGLSMATDTVPTLVVGGQNDTVVTPSYLSGLYATLPAGTQSGFAQIAGADHVYYTRPNNVEMKLLIPWLKVFVDSDTRYTQFLCPALPDPSGISAYQPKCPYVPTGGTTPPPGGQSVHAVGAGKCLTVPGADPAAGTQTDISTCDGGTGQVWTRTSSGQLTVSTGGTTMCLDAAGAGVSPGTRVQVWPCNGGSNQQWRVNANGTITGAQSGLCLDVTGASTANGALVELWTCNGGSNQQWALQ [TEP183]
purified protein yield per well: < 25 µg

RPRDSAPANPYQRGPDPTVAMIESSTGPFATTSASVPAGHGFNGGTVYYPTDTSLGTWGALAIVPGYSALFANEEAWMGPWLSSFGFVVLGVETNSRTDSADARGTELLAALDYLTTQSPVRDRVDPNRLAVLGHSAGGAGAMLAAENRPSLKAAIGLAPGSPVGNLSLATDKVPTMVLGGQNDTVVTPSYLSGLYATMPASTQSVFAQIAGADHVYYTHPNNVEMKLLIPWLKTFLDSDTRHPPFLCPAPPDPRSISIYTPKCPYVPGGGTPPGGGNTGPLHAVGAAKCLAAPPAGAAGTQVTIGGCDGRAGQTWTRTAAAELTVTPAGTPLCLDASGQGTSPGTKVIVWSCNGQANQQWNLNADGSVTAARSGLCLDVTGASTAEGAPVELWSCNGGSNQRWSLG [TEP095]
purified protein yield per well: < 25 µg

RPSAENPYERGPAPTVASIEAARGPFGTAETRVSATAVRGFGGGTIYYPTDTSQGTFGAVAVAPGFTASQSSMSWLGPRLASQGFVIFTIDTLGRYDQPAARGDQLLAALDYLTQSSSVRGRIDGSRLAVMGHSMGGGGSLEAAKDRPALQAAIPLTPWNATKNWSSVRTPTLIIGAERDSVASVAAHSEPFYASLPSTLDRAYLELAGASHFAPNVANVTIAKYSISWLKRFVDNDTRYEQFLCPLPSGSAISEYRGNCPHQG [TEP152]
purified protein yield per well: < 25 µg

RPSSAATSLAATQRGPDPTVAMIEATRGPFATAQVSVPSGHGFGGGMIYYPTDTSLGTWGALAIVPGYSALFANEEAWMGPWLSSFGFVVIGVETNTRTDSDSQRAAELQAALDYLTTQSPVRNQVDPTRLSVLGHSAGGAGAIEEAEQHPSLRALIGLAPGFPGQGLSMATDKVPSLIIGGQADGTVTPSYLANLYGTLPASTQSAFAQIAGADHVYYTHPNNVEMKLIIPWLKLFVDGDNRYQQFLCPALPDPSTISAYQPKCPYTPPGGSTSSSSSSTTTTTTTTSTTPTSTSSSPSGSCSATYQTQNYWPGGFQGLVTVTAGSAPISKWTVKWTLSSGQTITQVWNGTLSTSGSAVSVANVSYNGSLSPGTSTTFGFLANGPTSAPTLSCTGS [ESM039]
purified protein yield per well: < 25 µg
